The values below come from patent publication US6893829B2, “Human leukocyte 12-lipoxygenase and its role in the pathogenesis of disease states” (City of Hope, priority 1992, dated 2005).

Assay [1] has as its system VEGF protein in MCF-7 cells. The experiment in a line: VEGF protein expression in breast cancer cells (immunoblot). The class given is cell-based, human. Conditions: MCF-7, 24 hours. The protocol: FIG. 8 illustrates the dose-dependent effect of platelet-derived growth factor (PDGF) on vascular endothelial growth factor (VEGF) protein (42 kD) expression in MCF-7 breast cancer cells. Nearly confluent MCF-7 cells were serum starved for 24 hours by placing in DME medium+0.4% FCS and 0.2% BSA. This medium was then freshly replaced and the cells incubated for another 24 hours with PDGF. At the end of the incubation, the cell monolayers were washed with ice-cold PBS, scraped into PBS and pelleted by centrifugation. The cell pellets were then lysed and equal amounts of protein (50 μg) subjected to electrophoresis and immunoblotting to detect VEGF using a specific antibody from Santa Cruz Biotechnology. Detection was by a chemiluminiscent technique.
FIG. 9 illustrates the effect of epidermal growth factor (EGF) and the 12-lipoxygenase product 12-HETE on VEGF protein expression in the MCF-7 breast cancer cell line MCF-7. MCF-7 cells were treated with EGF and 12-HETE for 24 hours and VEGF protein identified as described in the legend to FIG. 8.

Assay [2] relates to 12-LO activity in MCF-7 cells. The experiment in a line: 12-HETE formation in MCF-7 cells. To be noted: four hours, basal 257±10 pg/10^6 cells.
For assay [3], the system named is leukocyte-type 12-LO in MCF-7 cells. The experiment in a line: 12-LO protein and mRNA expression in MCF-7 cells. To be noted: EGF 50 ng/ml, 24 hours.

B1: EGF: Epidermal Growth Factor (protein, UniProt P01133 23-1207, looked up)
Pro-epidermal growth factor: PQHWSCPEGTLAGNGNSTCVGPAPFLIFSHGNSIFRIDTEGTNYEQLVVDAGVSVIMDFHYNEKRIYWVDLERQLLQRVFLNGSRQERVCNIEKNVSGMAINWINEEVIWSNQQEGIITVTDMKGNNSHILLSALKYPANVAVDPVERFIFWSSEVAGSLYRADLDGVGVKALLETSEKITAVSLDVLDKRLFWIQYNREGSNSLICSCDYDGGSVHISKHPTQHNLFAMSLFGDRIFYSTWKMKTIWIANKHTGKDMVRINLHSSFVPLGELKVVHPLAQPKAEDDTWEPEQKLCKLRKGNCSSTVCGQDLQSHLCMCAEGYALSRDRKYCEDVNECAFWNHGCTLGCKNTPGSYYCTCPVGFVLLPDGKRCHQLVSCPRNVSECSHDCVLTSEGPLCFCPEGSVLERDGKTCSGCSSPDNGGCSQLCVPLSPVSWECDCFPGYDLQLDEKSCAASGPQPFLLFANSQDIRHMHFDGTDYGTLLSQQMGMVYALDHDPVENKIYFAHTALKWIERANMDGSQRERLIEEGVDVPEGLAVDWIGRRFYWTDRGKSLIGRSDLNGKRSKIITKENISQPRGIAVHPMAKRLFWTDTGINPRIESSSLQGLGRLVIASSDLIWPSGITIDFLTDKLYWCDAKQSVIEMANLDGSKRRRLTQNDVGHPFAVAVFEDYVWFSDWAMPSVMRVNKRTGKDRVRLQGSMLKPSSLVVVHPLAKPGADPCLYQNGGCEHICKKRLGTAWCSCREGFMKASDGKTCLALDGHQLLAGGEVDLKNQVTPLDILSKTRVSEDNITESQHMLVAEIMVSDQDDCAPVGCSMYARCISEGEDATCQCLKGFAGDGKLCSDIDECEMGVPVCPPASSKCINTEGGYVCRCSEGYQGDGIHCLDIDECQLGEHSCGENASCTNTEGGYTCMCAGRLSEPGLICPDSTPPPHLREDDHHYSVRNSDSECPLSHDGYCLHDGVCMYIEALDKYACNCVVGYIGERCQYRDLKWWELRHAGHGQQQKVIVVAVCVVVLVMLLLLSLWGAHYYRTQKLLSKNPKNPYEESSRDVRSRRPADTEDGMSSCPQPWFVVIKEHQDLKNGGQPVAGEDGQAADGSMQPTSWRQEPQLCGMGTEQGCWIPVSSDKGSCPQVMERSFHMPSYGTQTLEGGVEKPHSLLSANPLWQQRALDPPHQMELTQ
modifications: Pro-epidermal growth factor
Turning to B1, the VEGF protein expression entry in assay [1] was “induced”. Besides, the “formation of 12-HETE” value in assay [2] (serum-starved MCF-7, EGF 50 ng/ml) is 462 ± 15 pg; in assay [2] (serum-starved MCF-7, EGF 100 ng/ml) it was 593 ± 46 pg. In addition, the “levels of 12-LO protein (72 kD) and 12-LO mRNA” value in assay [3] is “marked increase”.
